# Target: the molecule itself
# Experiment: semi-native SDS PAGE; whole-cell lysates of WT and Nik-/- BMDMs transfected with B-DNA (2 μg/mL) for the indicated times; native sample buffer without β-mercaptoethanol, not boiled, run on SDS gels; immunoblot for STING
protein,measurement,value
"STING, endogenous in mouse cells (natural protein, mouse (endogenous in MEFs and BMDMs), UniProt Q3TBT3 1-378, looked up, STING (TMEM173), endogenous in murine embryonic fibroblasts and bone marrow-derived macrophages; source: endogenous, MEF lysate and BMDM lysate (cells transfected with B-DNA)) MPYSNLHPAIPRPRGHRSKYVALIFLVASLMILWVAKDPPNHTLKYLALHLASHELGLLLKNLCCLAEELCHVQSRYQGSYWKAVRACLGCPIHCMAMILLSSYFYFLQNTADIYLSWMFGLLVLYKSLSMLLGLQSLTPAEVSAVCEEKKLNVAHGLAWSYYIGYLRLILPGLQARIRMFNQLHNNMLSGAGSRRLYILFPLDCGVPDNLSVVDPNIRFRDMLPQQNIDRAGIKNRVYSNSVYEILENGQPAGVCILEYATPLQTLFAMSQDAKAGFSREDRLEQAKLFCRTLEEILEDVPESRNNCRLIVYQEPTDGNSFSLSQEVLRHIRQEEKEEVTMNAPMTSVAPPPSVLSQEPRLLISGMDQPLPLRTDLI",stoichiometry N,2

# — paper PMC6050272, “A TRAF3-NIK module differentially regulates DNA vs RNA pathways in innate immune signaling” (Nature Communications, 2018)
